Experiments:
[1] = target: human PD-L1 on the cell surface (PD-L1 transfected HEK293, ES2, CHO PD-L1, engineered CHO cells) (human) (UniProt Q9NZQ7); experiment: flow cytometry on engineered CHO cells; four-parameter sigmoidal fit, ECf
[2] = target: human PD-L1 on the cell surface (PD-L1 transfected HEK293, ES2, CHO PD-L1, engineered CHO cells) (human) (UniProt Q9NZQ7); experiment: flow cytometry on engineered CHO cells; four-parameter sigmoidal fit, 50% occupancy
[3] = target: human OX40 and human PD-L1 expressed together on engineered CHO cells (human) (UniProt P43489); experiment: flow cytometry on engineered CHO cells, AF647 anti-human IgG; apparent KD, one site specific binding fit
[4] = target: human PD-L1 on the cell surface (PD-L1 transfected HEK293, ES2, CHO PD-L1, engineered CHO cells) (human) (UniProt Q9NZQ7); experiment: as above

Sequence of human PD-L1 on the cell surface (PD-L1 transfected HEK293, ES2, CHO PD-L1, engineered CHO cells) (human) (Q9NZQ7 19-290, change not shown): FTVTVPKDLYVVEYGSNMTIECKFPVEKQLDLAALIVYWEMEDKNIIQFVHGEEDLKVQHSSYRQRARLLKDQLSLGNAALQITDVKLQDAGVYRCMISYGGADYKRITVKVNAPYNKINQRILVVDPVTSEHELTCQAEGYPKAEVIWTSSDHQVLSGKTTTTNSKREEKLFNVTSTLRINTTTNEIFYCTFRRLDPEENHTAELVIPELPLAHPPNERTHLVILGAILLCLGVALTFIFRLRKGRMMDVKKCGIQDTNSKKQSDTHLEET

concentration for 20% occupancy (EC20) [1]: 0.022 nM
concentration for 90% occupancy (EC90) [1]: 0.79 nM
EC50 [2]: 0.088 nM
Kd [3]: 0.27 nM
Kd [4]: 0.088 nM
Substance: MEDI5615 (PD-L1/OX40L BFP2 bispecific molecule, IgG4P)

Reference: patent publication US20190241659A1
